Measurements from PMC7083845.

Legend:
[1] = target: Cub fusion of mature GENOMES UNCOUPLED 4 (GUN4) (Arabidopsis thaliana) (UniProt Q9LX31)
[2] = target: Cub fusion of mature GENOMES UNCOUPLED 4 (GUN4) (Arabidopsis thaliana) (UniProt Q9LX31); remark: listed apart in the source

Sequence of UniProt Q9LX31 (Q9LX31 70-265): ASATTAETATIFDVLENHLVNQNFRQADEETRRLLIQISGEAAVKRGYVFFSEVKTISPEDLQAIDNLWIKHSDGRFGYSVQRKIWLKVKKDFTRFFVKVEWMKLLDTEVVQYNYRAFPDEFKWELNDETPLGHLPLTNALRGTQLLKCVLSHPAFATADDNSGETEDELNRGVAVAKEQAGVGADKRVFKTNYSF

Question: With “NubG-BCM1 (mature BALANCE of CHLOROPHYLL METABOLISM 1) (natural protein)” as the substance, how does the in vitro MgCh activity in 0.15 mM β-DM: 1 μM purified His-BCM1 against assays without BCM1 or with 1 μM GST [1] read?
Answer: Its in vitro MgCh activity in 0.15 mM β-DM: 1 μM purified His-BCM1 against assays without BCM1 or with 1 μM GST is 3 fold.

Question: And the in vitro MgCh activity with His-GUN4 and the three MgCh subunits: yeast membranes holding His-BCM1 against control membranes without BCM1 [1]?
Answer: The in vitro MgCh activity with His-GUN4 and the three MgCh subunits: yeast membranes holding His-BCM1 against control membranes without BCM1 was 12%.

Question: What about the in vitro MgCh activity (MgP formed, HPLC) of recombinant MgCh subunits with His-GUN4: thylakoids from BCM1-OX3/gun4-1 against thylakoids from bcm1-3 gun4-1 seedlings [2] of the same substance?
Answer: Its in vitro MgCh activity (MgP formed, HPLC) of recombinant MgCh subunits with His-GUN4: thylakoids from BCM1-OX3/gun4-1 against thylakoids from bcm1-3 gun4-1 seedlings is 12%.
